Results on 6 molecules are retold here after PMC12227652 (Nature Communications, 2025).

B1: TRAK1_(569-623) (domain or fragment, human, UniProt Q9UPV9 569-623, looked up)
chain: YLPEKLQIVKPLEGSATLHHWQQLAQPHLGGILDPRPGVVTKGFRTLDVDLDEVY
B2: MBP-TRAK1_(416-446,561-623) (domain or fragment, human, UniProt Q9UPV9 416-446, looked up)
chain: RSLTPSPMNIPGSNQSSAMNSLLSSCVSTPRGMSFSSRSYLPEKLQIVKPLEGSATLHHWQQLAQPHLGGILDPRPGVVTKGFRTLDVDLDEVY
B3: MBP-TRAK1_(416-446,561-623) L597D (domain or fragment, human, UniProt Q9UPV9 416-446, looked up)
chain: B2 chain with L68D
B4: MBP-TRAK1_(416-446,561-623) W589D (domain or fragment, human, UniProt Q9UPV9 416-446, looked up)
chain: B2 chain with W60D
B5: MIRO1_(1-591), full-length cytosolic human MIRO1 (domain or fragment, UniProt Q8IXI2 1-591, looked up)
chain: MKKDVRILLVGEPRVGKTSLIMSLVSEEFPEEVPPRAEEITIPADVTPERVPTHIVDYSEAEQSDEQLHQEISQANVICIVYAVNNKHSIDKVTSRWIPLINERTDKDSRLPLILVGNKSDLVEYSSMETILPIMNQYTEIETCVECSAKNLKNISELFYYAQKAVLHPTGPLYCPEEKEMKPACIKALTRIFKISDQDNDGTLNDAELNFFQRICFNTPLAPQALEDVKNVVRKHISDGVADSGLTLKGFLFLHTLFIQRGRHETTWTVLRRFGYDDDLDLTPEYLFPLLKIPPDCTTELNHHAYLFLQSTFDKHDLDRDCALSPDELKDLFKVFPYIPWGPDVNNTVCTNERGWITYQGFLSQWTLTTYLDVQRCLEYLGYLGYSILTEQESQASAVTVTRDKKIDLQKKQTQRNVFRCNVIGVKNCGKSGVLQALLGRNLMRQKKIREDHKSYYAINTVYVYGQEKYLLLHDISESEFLTEAEIICDVVCLVYDVSNPKSFEYCARIFKQHFMDSRIPCLIVAAKSDLHEVKQEYSISPTDFCRKHKMPPPQAFTCNTADAPSKDIFVKLTTMAMYPHVTQADLKSST

The data set “cryo-EM structure” concerns the molecule itself. Kind of data set: cryo-EM structure.
A further data set addresses MIRO1_(177-591) (human, UniProt Q8IXI2 177-591). In words: ITC. Background: ITC needs no label: the signal is the heat of the interaction.
Data set [1] addresses B5. Kind of data set: pull-down.
Data set [2] concerns the target B5. In words: pull-down. This is another data set of the same source.
The data set “mass photometry” concerns the molecule itself. Kind of data set: mass photometry.

Residue numbers refer to the chain shown, from its start. In names and notes the source's numbering stands. Read-outs that look alike come from different tables or passages of the source.

With B1, the binding result in the data set “cryo-EM structure” was “binds”.
The term Kd denotes the constant that tells how readily two partners part at equilibrium. A low value points to higher affinity. A word on the stoichiometry N: it is the number of molecules, sites or subunits per partner or assembly. As to RSLTPSPMNIPGSNQS (peptide, UniProt Q9UPV9 416-431, looked up) [MBP-TRAK1_(416-431)], in the data set with MIRO1_(177-591), the Kd fell in the range of 10.9 to 15.9 µM and the “stoichiometry N” value was found to be 1.
On to B2, for which the binding result in data set [1] is “binds”.
For the molecule B3, the binding result in data set [2] is recorded as “binds”.
As to B4, the binding result in data set [2] is “binds”.
Take B5: the “stoichiometry N” value in the data set “mass photometry” is 2.
